57 sequences from the supplement of paper PMC10598134 can be followed below.

± gives the standard deviation.

The data set can be described thus: collision cross section of modified peptide (TIMS, N2, iRT-aligned); higher = larger / more extended gas-phase ion. The method in brief: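 Collision cross section was derived from the Mason-Schamp equation. Each value averages 1–3 technical replicates of the most abundant feature per charge state, measured on a timsTOF Pro/HT in dda-PASEF mode (nitrogen, ~2.4 mbar) after a 120-min nanoflow C18 gradient at 60 °C. Synthetic peptide pools (~100 fmol/µL in 2% acetonitrile/0.1% formic acid, iRT standard spiked 1:40) were identified with MaxQuant, and 1/K0 was calibrated with three reference ions and aligned run-wise to the median iRT peptide deviation.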

Where [1] appears, read: charge state: 2, modification: Methyl (K).
Setting [2] is: charge state: 3, modification: Methyl (K).
The mark [3] stands for this setting: charge state: 2, modification: Succinyl.
Setting [4] is: charge state: 3, modification: Succinyl.
The mark [5] stands for this setting: charge state: 2, modification: Formyl.
The mark [6] stands for this setting: charge state: 2, modification: hydroxyisobutyryl.
Where [7] appears, read: charge state: 3, modification: hydroxyisobutyryl.
The mark [8] stands for this setting: charge state: 2, modification: Nitro (Y).
Where [9] appears, read: charge state: 3, modification: Butyryl.
Where [10] appears, read: charge state: 2, modification: Citrullination (R).
Setting [11] is: charge state: 2, modification: Malonyl.
Setting [12] is: charge state: 2, modification: GlyGly (K).
Where [13] appears, read: charge state: 2, modification: HexNAc (ST).
[14] abbreviates: charge state: 2, modification: Glutarylation.
The mark [15] stands for this setting: charge state: 3, modification: Citrullination (R).
[16] abbreviates: charge state: 3, modification: Formyl.
The mark [17] stands for this setting: charge state: 2, modification: Dimethyl (K).
Setting [18] is: charge state: 3, modification: Dimethyl (K).
Setting [19] is: charge state: 2, modification: Acetyl (K).
[20] abbreviates: charge state: 2, modification: Butyryl.
The mark [21] stands for this setting: charge state: 3, modification: Acetyl (K).
Setting [22] is: charge state: 2, modification: Crotonyl.
[23] abbreviates: charge state: 3, modification: Crotonyl.
The mark [24] stands for this setting: charge state: 2, modification: Methyl (R).
The mark [25] stands for this setting: charge state: 3, modification: Methyl (R).

As for “SLEEEGAAHSGKR [_SLEEEGAAHSGK(Methyl (K))R_]”, the collision cross section came to 413.71 ± 2.6 Å² under setting [1] and 459.06 ± 3.1 Å² under setting [2].

Sequence “VPTTEKPTVTVNFR [_VPTTEK(Succinyl)PTVTVNFR_]” came in with a collision cross section under setting [3] of 427.05 ± 0.52 Å² and a collision cross section under setting [4] of 513.15 ± 2.5 Å².

As for VFSIISSEKELK [_VFSIISSEK(Formyl)ELK_], the collision cross section under setting [5] is 402.55 ± 0.42 Å².

Sequence “GTISAPGKVVTAAAQAK [_GTISAPGK(hydroxyisobutyryl)VVTAAAQAK_]” registered a collision cross section under setting [6] of 447.84 ± 0.78 Å² and a collision cross section under setting [7] of 524.07 ± 2 Å².

As to “LGPPGNPGPSGSPGPKGQK [_LGPPGNPGPSGSP(Hydroxyproline)GPKGQK_]”, the collision cross section (charge state: 2, modification: Hydroxyproline) is given as 423.7 ± 3 Å².

Under setting [8], AQLSQYFDAVK [_AQLSQY(Nitro (Y))FDAVK_] had a collision cross section of 386.8 ± 0.8 Å².

Under setting [9], “SPPLPEHQKIPCNSAEPK [_SPPLPEHQK(Butyryl)IPCNSAEPK_]” came in with a collision cross section of 542.36 ± 2 Å².

Regarding “GTITVSAQELKDNR [_GTITVSAQELK(Methyl (K))DNR_]”, the collision cross section is, setting by setting: under setting [1], 439.73 ± 1.7 Å²; under setting [2], 485.75 ± 3.3 Å².

As to IQQELQTAKK [_IQQELQTAK(Methyl (K))K_], the collision cross section is 376.86 ± 3.5 Å² under setting [1] and 430.18 ± 6.1 Å² under setting [2].

“DSSPTTNSKLSALQR [_DSSPTTNSK(Trimethyl (K))LSALQR_]” showed a collision cross section (charge state: 3, modification: Trimethyl (K)) of 473.36 ± 2.4 Å².

Consider “LQEKVESAQSEQK [_LQEK(hydroxyisobutyryl)VESAQSEQK_]”, for which the collision cross section reads like this: under setting [6], 422.92 ± 0.52 Å²; under setting [7], 502.35 ± 2.1 Å².

Sequence YVGESEANIR [_Y(Nitro (Y))VGESEANIR_] returned a collision cross section under setting [8] of 357.77 ± 0.55 Å².

The sequence “FLQEFYQDDELGKK [_FLQEFYQDDELGK(Formyl)K_]” yielded a collision cross section under setting [5] of 444.03 ± 0.77 Å².

“SGATAGAAGGRGK [_SGATAGAAGGR(Citrullination (R))GK_]” showed a collision cross section under setting [10] of 331.61 ± 0.28 Å².

Turning to TPNLYIYSKK [_TPNLYIYSK(Malonyl)K_], under setting [11], the collision cross section amounted to 383.2 ± 0.78 Å².

The sequence “ASAISIKLGSSK [_ASAISIK(GlyGly (K))LGSSK_]” showed a collision cross section under setting [12] of 390.99 ± 1 Å².

Regarding “IPAASAAAMNLASAR [_IPAASAAAMNLAS(HexNAc (ST))AR_]”, the collision cross section under setting [13] worked out at 422.38 ± 0.62 Å².

Under setting [14], “LLEQKTQESQK [_LLEQK(Gluratylation)TQESQK_]” came in with a collision cross section of 402.96 ± 0.5 Å².

On to “GGSGGRGVSVSSAR [_GGSGGR(Citrullination (R))GVSVSSAR_]”, for which the collision cross section amounted to 361.74 ± 2.3 Å² under setting [10] and 445.09 ± 2.9 Å² under setting [15].

Turning to “DDSFLGKLGGTLAR [_DDSFLGK(Gluratylation)LGGTLAR_]”, the collision cross section by setting is: under setting [14], 415.27 ± 0.59 Å²; (charge state: 3, modification: Glutarylation) 485.15 Å².

In turn, “SALAAAQTQVAEYK [_S(HexNAc (ST))ALAAAQTQVAEYK_]” displayed a collision cross section under setting [13] of 431.97 ± 0.62 Å².

Turning to “VYIASSSGSTAIKK [_VYIASSSGSTAIK(Propionyl)K_]”, the collision cross section (charge state: 2, modification: Propionyl) was determined as 415.66 ± 0.38 Å².

As for “DASTLQSQKAEGTGDAK [_DASTLQSQK(Formyl)AEGTGDAK_]”, the collision cross section runs as follows: under setting [5], 431.62 ± 0.17 Å²; under setting [16], 503.35 ± 3 Å².

For the sequence “IISSIEQKEENK [_IISSIEQK(Methyl (K))EENK_]”, the collision cross section runs as follows: under setting [1], 408.26 ± 2.5 Å²; under setting [2], 450.18 ± 5 Å².

Consider SEASSEFAKK [_SEASSEFAK(Dimethyl (K))K_], for which the collision cross section under setting [17] was 358.79 ± 0.58 Å² and the collision cross section under setting [18] turned out to be 422.66 ± 2.8 Å².

For the sequence “EGFSIPVSADGFK [_EGFSIPVS(HexNAc (ST))ADGFK_]”, the collision cross section under setting [13] was found to be 412.81 ± 0.62 Å².

On to “PANEKATDDYHYEK [_PANEK(hydroxyisobutyryl)ATDDYHYEK_]”, for which the collision cross section came out at 446.18 ± 0.51 Å² under setting [6] and 509.04 ± 1.9 Å² under setting [7].

For the sequence “IHNAENIQPGEQKYEYK [_IHNAENIQPGEQK(hydroxyisobutyryl)YEYK_]”, the collision cross section by setting is: under setting [6], 491.39 ± 0.68 Å²; under setting [7], 532.88 ± 2 Å².

Under setting [19], “LGVATVAKGVCGACK [_LGVATVAK(Acetyl (K))GVCGACK_]” gave a collision cross section of 413.53 ± 0.49 Å².

With “SHLRHAIPSAER [_SHLR(Citrullination (R))HAIPSAER_]”, the collision cross section by setting is: under setting [10], 388.58 ± 0.81 Å²; under setting [15], 492.66 ± 4.6 Å².

Regarding “SITHSTVGSKGEK [_SITHSTVGSK(hydroxyisobutyryl)GEK_]”, the collision cross section runs as follows: under setting [6], 401.03 ± 1.4 Å²; under setting [7], 446.16 ± 2.7 Å².

On to ASEALLKQLK [_ASEALLK(Dimethyl (K))QLK_], for which the collision cross section is, setting by setting: under setting [17], 366.02 ± 0.28 Å²; under setting [18], 439.24 ± 2.8 Å².

Take “GRGAANDSTQFTVAGR [_GR(Citrullination (R))GAANDSTQFTVAGR_]”: the collision cross section turned out to be 411.84 ± 0.81 Å² under setting [10] and 488.59 ± 0.56 Å² under setting [15].

For “VSPASSVDSNIPSSQGYKK [_VSPASSVDSNIPSSQGYK(hydroxyisobutyryl)K_]”, the collision cross section by setting is: under setting [6], 468.85 ± 0.27 Å²; under setting [7], 562.43 ± 0.42 Å².

In the case of “VSPASSVDSNIPSSQGYKK [_VSPASSVDSNIPSSQGYK(Butyryl)K_]”, the collision cross section is, setting by setting: under setting [20], 463.23 ± 2.7 Å²; under setting [9], 559.88 ± 1.1 Å².

As for “SSFAYKDQNENR [_SSFAYK(Acetyl (K))DQNENR_]”, the collision cross section runs as follows: under setting [19], 398.41 ± 1.4 Å²; under setting [21], 457.8 ± 0.27 Å².

Under setting [11], INNFSADIKDSK [_INNFSADIK(Malonyl)DSK_] came in with a collision cross section of 398.58 ± 0.027 Å².

With “LQAAYAGDKADDIQK [_LQAAYAGDK(Butyryl)ADDIQK_]”, the collision cross section stood at 436.77 ± 0.53 Å² under setting [20] and 489.7 ± 2.9 Å² under setting [9].

Consider “IHNAENIQPGEQKYEYK [_IHNAENIQPGEQK(Formyl)YEYK_]”, for which the collision cross section under setting [16] worked out at 518.35 ± 1.3 Å².

For SPDEAYAIAKK [_SPDEAYAIAK(Crotonyl)K_], the collision cross section is 376.34 ± 0.8 Å² under setting [22] and 442.81 ± 1.6 Å² under setting [23].

With “PASGAGAGAGAGKR [_PASGAGAGAGAGK(Methyl (K))R_]”, the collision cross section reads like this: under setting [1], 381.78 ± 0.91 Å²; under setting [2], 459.46 ± 3.9 Å².

DFDTALKHYDK [_DFDTALK(Acetyl (K))HYDK_] registered a collision cross section under setting [19] of 401.2 ± 2 Å² and a collision cross section under setting [21] of 463.37 ± 2.2 Å².

Regarding “DFDTALKHYDK [_DFDTALK(Dimethyl (K))HYDK_]”, under setting [18], the collision cross section is on record as 452.29 ± 1.2 Å².

In turn, “ATVASSTQKFQDLGVK [_ATVASSTQK(Malonyl)FQDLGVK_]” gave a collision cross section under setting [11] of 440.93 ± 1 Å².

In turn, KFGVLSDNFK [_K(Succinyl)FGVLSDNFK_] returned a collision cross section under setting [3] of 376.58 ± 0.24 Å².

As to “DAIHFYNKSLAEHR [_DAIHFYNK(Dimethyl (K))SLAEHR_]”, the collision cross section under setting [18] stood at 497.01 ± 1.6 Å².

Consider “LGDVYVNDAFGTAHR [_LGDVY(Nitro (Y))VNDAFGTAHR_]”, for which the collision cross section by setting is: under setting [8], 443.1 ± 0.55 Å²; (charge state: 3, modification: Nitro (Y)) 500.36 ± 1.2 Å².

Regarding RLPNVHGR [_R(Methyl (R))LPNVHGR_], the collision cross section reads like this: under setting [24], 332.28 ± 1.8 Å²; under setting [25], 421.48 ± 3.9 Å².

In the case of “GEVGAGAGPGAQAGPSAKR [_GEVGAGAGPGAQAGPSAK(GlyGly (K))R_]”, the collision cross section worked out at 426.91 ± 0.84 Å² under setting [12] and 469.61 ± 1.1 Å² (charge state: 3, modification: GlyGly (K)).

In the case of ITASLCDLKSR [_ITASLCDLK(Malonyl)SR_], the collision cross section under setting [11] turned out to be 382.56 Å².

Consider “GTITVSAQELKDNR [_GTITVSAQELK(Crotonyl)DNR_]”, for which the collision cross section came to 422.36 ± 0.55 Å² under setting [22] and 483.09 ± 1.6 Å² under setting [23].

With SKHLQEQLNELK [_SK(Succinyl)HLQEQLNELK_], the collision cross section by setting is: under setting [3], 419.21 ± 1.5 Å²; under setting [4], 481.12 ± 2 Å².

In turn, ALLQAKASGK [_ALLQAK(Butyryl)ASGK_] had a collision cross section under setting [20] of 352.22 ± 2.3 Å².

Turning to LLRGVGGSHGR [_LLR(Methyl (R))GVGGSHGR_], the collision cross section is, setting by setting: under setting [24], 374.24 Å²; under setting [25], 456.7 ± 11 Å².

Regarding “TQAYQDQKPGTSGLR [_TQAYQDQK(Acetyl (K))PGTSGLR_]”, the collision cross section is listed as 429.11 ± 1.6 Å² under setting [19] and 480.53 ± 6.7 Å² under setting [21].

Regarding “FDDTNPEKEEAK [_FDDTNPEK(hydroxyisobutyryl)EEAK_]”, the collision cross section reads like this: under setting [6], 401.52 ± 0.54 Å²; under setting [7], 443.87 ± 2.2 Å².

In turn, “LGTTPSVYGGAGGRGIR [_LGTTPSVYGGAGGR(Methyl (R))GIR_]” showed a collision cross section under setting [25] of 525.94 ± 0.78 Å².
